Assay results as given in patent US20260234276A1.

Columns and labels:
human CCR8 (human) [1] = biological target: human CCR8 (human) (UniProt P51685); assay: flow cytometry, hCCR8 transfected CHOK1 cells
human CCR8 (human) [2] = biological target: human CCR8 (human) (UniProt P51685); assay: flow cytometry on lymphocytes from ascitic ovarian cancer, 1 µg mAb
human CCR8 (human) [3] = biological target: human CCR8 (human) (UniProt P51685); assay: flow cytometry on lymphocytes from ascitic ovarian cancer, 0.1 µg mAb
human CCR8 (human) [4] = biological target: human CCR8 (human) (UniProt P51685); assay: flow cytometry on lymphocytes from ascitic ovarian cancer, 0.5 µg mAb

Row | Substance | % positive cells (human CCR8 (human) [1]) [%] | MFI fold change to isotype ctrl (human CCR8 (human) [1]) [fold] | Positive cells (human CCR8 (human) [2]) [%] | Positive cells (human CCR8 (human) [3]) [%] | Positive cells (human CCR8 (human) [4]) [%]
1 | L263G8 (antibody) | 86.5 | 19.8 | 8.64 | 9.5 | 
2 | Isotype ctrl (antibody) |  |  | 5.06 | 2.94 | 3.81
